Relative IC50 (IC50 of the variant divided by IC50 of the Girentuximab chimeric IgG1 antibody on the same plate) and relative KD (KD of the variant divided by KD of the chimeric antibody on the same chip) data for one substance are collected here from US20220331457A1.

In experiment [1] the target is human carbonic anhydrase IX (CAIX) (human) (UniProt Q16790). Put plainly: competition ELISA on coated CAIX; competitor: biotinylated chimeric Girentuximab IgG1.
Experiment [2] has the same target. The experiment can be described thus: SPR (Biacore T200), multicycle kinetics; purified antibody captured on Protein G chip, CAIX as analyte. In general terms: Surface plasmon resonance follows binding to a sensor surface in real time, without labels.

For “Chimeric Girentuximab (VH0/Vκ0) IgG4 (S228P, L235E) (antibody)”, in experiment [1], the relative IC50 (IC50 of the variant divided by IC50 of the Girentuximab chimeric IgG1 antibody on the same plate) is < 2 fold. Moreover, the relative KD (KD of the variant divided by KD of the chimeric antibody on the same chip) in experiment [2] is < 2 fold.
